Experimental data as given in publication PMC6130943, “Cytochrome P450 and O-methyltransferase catalyze the final steps in the biosynthesis of the anti-addictive alkaloid ibogaine from Tabernanthe iboga” (The Journal of Biological Chemistry, 2018).

System: CC[C@H]1C[C@@H]2C[C@H]3c4[nH]c5ccc(O)cc5c4CCN(C2)[C@@H]13
Experiment: HPLC-MS of ibogaine formation, Michaelis-Menten fit
Type: biochemical, Tabernanthe iboga
Conditions: SAM, HEPES, pH 9 (relative-rate assays adjusted to optimum), 30 °C, 25 min
Source text: HPLC-MS of ibogaine formation, Michaelis-Menten fit on N10OMT (noribogaine-10-O-methyltransferase; OMT candidate 1)

Substance: N10OMT (noribogaine-10-O-methyltransferase; OMT candidate 1) (Tabernanthe iboga)
- Km: 73.6 ± 28.5 µM
- Vmax: 0.00084 µmol/min/mg
- kcat: 0.000548 ± 7.23e-05 s⁻¹
- kcat/Km: 7.45 ± 3.05 M⁻¹ s⁻¹
